According to publication PMC4732765, “Long-Term Persistence of Bi-functionality Contributes to the Robustness of Microbial Life through Exaptation” (PLoS Genetics, 2016):

Columns and labels:
Test in all cases: purified protein
purified protein [1] = substrate: NC(=O)c1ncn([C@@H]2O[C@H](COP(=O)(O)O)[C@@H](O)[C@H]2O)c1N=CN[C@@H]1O[C@H](COP(=O)(O)O)[C@@H](O)[C@H]1O; type: biochemical, Desulfovibrio desulfuricans; settings: 25 °C, HisA reaction
purified protein [2] = substrate: O=C(O)c1ccccc1N[C@@H]1O[C@H](COP(=O)(O)O)[C@@H](O)[C@H]1O; type: biochemical, Desulfovibrio desulfuricans; settings: 25 °C, TrpF reaction, PRA generated in situ from anthranilate and excess PRPP with yeast anthranilate phosphoribosyl transferase
purified protein [3] = substrate: NC(=O)c1ncn([C@@H]2O[C@H](COP(=O)(O)O)[C@@H](O)[C@H]2O)c1N=CN[C@@H]1O[C@H](COP(=O)(O)O)[C@@H](O)[C@H]1O; type: biochemical, Syntrophotalea carbinolica; settings: 25 °C, HisA reaction
purified protein [4] = substrate: O=C(O)c1ccccc1N[C@@H]1O[C@H](COP(=O)(O)O)[C@@H](O)[C@H]1O; type: biochemical, Syntrophotalea carbinolica; settings: 25 °C, TrpF reaction, PRA generated in situ from anthranilate and excess PRPP with yeast anthranilate phosphoribosyl transferase
purified protein [5] = substrate: NC(=O)c1ncn([C@@H]2O[C@H](COP(=O)(O)O)[C@@H](O)[C@H]2O)c1N=CN[C@@H]1O[C@H](COP(=O)(O)O)[C@@H](O)[C@H]1O; type: biochemical, synthetic construct; settings: 25 °C, HisA reaction, enzyme shows hysteresis
purified protein [6] = substrate: O=C(O)c1ccccc1N[C@@H]1O[C@H](COP(=O)(O)O)[C@@H](O)[C@H]1O; type: biochemical, synthetic construct; settings: 25 °C, TrpF reaction, PRA generated in situ from anthranilate and excess PRPP with yeast anthranilate phosphoribosyl transferase, enzyme shows hysteresis
purified protein [7] = substrate: NC(=O)c1ncn([C@@H]2O[C@H](COP(=O)(O)O)[C@@H](O)[C@H]2O)c1N=CN[C@@H]1O[C@H](COP(=O)(O)O)[C@@H](O)[C@H]1O; type: biochemical, Thermotoga maritima; settings: 25 °C, HisA reaction
purified protein [8] = substrate: O=C(O)c1ccccc1N[C@@H]1O[C@H](COP(=O)(O)O)[C@@H](O)[C@H]1O; type: biochemical, Thermotoga maritima; settings: 25 °C, TrpF reaction, PRA generated in situ from anthranilate and excess PRPP with yeast anthranilate phosphoribosyl transferase

B1: ddHisA (Desulfovibrio desulfuricans ATCC 27774) (protein)
chain: MIIFPAVDIQNGKAVRLKQGRAHESTVFAESPVDAARAWEEAGARWLHVVDLDGAFDGAAQSRRIVRDICAALAIPVQLGGGIRDMHTAEAYLEAGVSRLIIGTLALEQPTLFADMCRAFPGRVGVSLDAEGGRLKSRGWVEDTGMTVDTALPRLLDDGAAFVIYTDIERDGMQCGVNVAALEHLARLSTVPVIAAGGVATLEDIQKLYPLTLETSLMGAVSGRALYEGTLDLKEANAWIDARKNTPESA
notes: full-length hisA in pET24a (NdeI/XhoI), His-tag (HisTrap), E. coli T7 Express with pRARE
For B1, the Km (purified protein [1]) was 2.8 µM, the kcat (purified protein [1]) was 1.3 s⁻¹ and the kcat/Km (purified protein [1]) was 460000 M⁻¹ s⁻¹. The Km (purified protein [2]) was 161 µM, the kcat (purified protein [2]) was 0.0023 s⁻¹ and the kcat/Km (purified protein [2]) was 14 M⁻¹ s⁻¹.

B2: pcHisA (Syntrophotalea carbinolica DSM 2380) (protein)
chain: MIVIPAIDLKEGRCVRLEQGLMEKDTVYNDNPGAQARSWQEQGGELLHIVDLDGAFAGVPRNRDAIRAIAEAVSIPTELGGGIRDLPTIEAYLELGIDRVILGTVAKENPELVREACRLFPGRIVVGIDARDGLVAVRGWADVTEKLATELAKEMEGFGVEAIIYTDIARDGMMGGPNLEATRALAESISVPVIASGGVSCLEDIARLMTIEDSGVTGVITGKALYTGSLDLREAVALTKGKA
notes: as for B1
Work on B2 yielded a Km (purified protein [3]) of 1.8 µM, a kcat (purified protein [3]) of 0.4 s⁻¹ and a kcat/Km (purified protein [3]) of 220000 M⁻¹ s⁻¹. The Km (purified protein [4]) was 303 µM, the kcat (purified protein [4]) was 0.001 s⁻¹ and the kcat/Km (purified protein [4]) was 3 M⁻¹ s⁻¹.

B3: CA-Bact-HisA (synthetic construct) (protein)
chain: MRIIPAIDLKDGRCVRLVQGDMEKATVYNDDPLEMAKQWVEQGAEWLHVVDLDGAFAGKPVNEDVIKEIAQKVSVKVQLGGGIRDLEDIEAYLDAGVDRVIIGTVAVKNPELVREMVEKYGERIVVGIDARDGMVAVKGWKETTEVKATDLAKRFEDAGVEAIIYTDIARDGMMQGPNIEAIRELAKAVSLPVIASGGVSSLEDIEALLAIEESGVAGVIVGKALYEGRLDLREALALAKKL
notes: synthetic gene in pET24a, His-tag (HisTrap), E. coli BL21-Gold (DE3)
With B3 the Km (purified protein [5]) was 0.5 µM, the kcat (purified protein [5]) was 0.05 s⁻¹ and the kcat/Km (purified protein [5]) was 100000 M⁻¹ s⁻¹. It also gave a Km (purified protein [6]) of 3.2 µM, a kcat (purified protein [6]) of 0.00023 s⁻¹ and a kcat/Km (purified protein [6]) of 70 M⁻¹ s⁻¹.

B4: tmHisA (Thermotoga maritima MSB8) (protein)
chain: MLVVPAIDLFRGKVARMIKGRKENTIFYEKDPVELVEKLIEEGFTLIHVVDLSNAIENSGENLPVLEKLSEFAEHIQIGGGIRSLDYAEKLRKLGYRRQIVSSKVLEDPSFLKSLREIDVEPVFSLDTRGGRVAFKGWLAEEEIDPVSLLKRLKEYGLEEIVHTEIEKDGTLQEHDFSLTKKIAIEAEVKVLAAGGISSENSLKTAQKVHTETNGLLKGVIVGRAFLEGILTVEVMKRYAR
notes: full-length hisA in pET21a (NdeI/NotI), His-tag (HisTrap), E. coli BL21-CodonPlus-(DE3)-RIPL; heat step 70 °C
B4 was tested, and the Km (purified protein [7]) was 5.6 µM, the kcat (purified protein [7]) was 1 s⁻¹ and the kcat/Km (purified protein [7]) was 180000 M⁻¹ s⁻¹. For the same protein, the Km (purified protein [8]) was 60 µM.
